Measured values published in patent US20240366624A1 (WASHINGTON UNIVERSITY, published 2024).

T1: recombinant human ERO1α (endoplasmic reticulum oxidoreductase 1α), wild type (human, UniProt Q96HE7 24-468, biotinylated when coupled to the bio-layer interferometry biosensor (site not stated))
T1 construct: also called wtERO1α; biotinylated ERO1α
T1 sequence (looked up): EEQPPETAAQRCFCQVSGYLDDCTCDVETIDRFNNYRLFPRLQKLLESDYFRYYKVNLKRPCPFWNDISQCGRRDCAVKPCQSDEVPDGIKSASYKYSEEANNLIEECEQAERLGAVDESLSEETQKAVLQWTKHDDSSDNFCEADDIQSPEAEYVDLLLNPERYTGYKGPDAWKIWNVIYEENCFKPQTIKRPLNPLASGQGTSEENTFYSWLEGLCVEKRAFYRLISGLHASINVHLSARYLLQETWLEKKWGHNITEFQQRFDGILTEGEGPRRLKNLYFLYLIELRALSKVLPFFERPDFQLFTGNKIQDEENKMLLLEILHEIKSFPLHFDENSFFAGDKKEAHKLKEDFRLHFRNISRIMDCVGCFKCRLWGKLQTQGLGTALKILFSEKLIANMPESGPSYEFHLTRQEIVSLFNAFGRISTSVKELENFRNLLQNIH

B1: human platelet ERO1α (enzyme, UniProt Q96HE7 24-468, looked up)
chain: T1 sequence (looked up)
notes: Endogenous protein in platelet lysates (immunoprecipitation, immunoblot)
B2: wild type STIM1, recombinant (other, UniProt Q13586 23-213, looked up)
chain: LSHSHSEKATGTSSGANSEESTAAEFCRIDKPLCHSEDEKLSFEAVRNIHKLMDDDANGDVDVEESDEFLREDLNYHDPTVKHSTFHGEDKLISVEDLWKAWKSSEVYNWTVDEVVQWLITYVELPQYEETFRKLQLSGHAMPRLAVTNTTMTGTVLKMTDRSHRQKLQLKALDTVLFGPPLLTRHNHLKD
notes: also called wtSTIM1; WT STIM1

Experiments:
[1] = molecular target: T2, human platelet PDI (protein disulfide isomerase) (human, UniProt P07237 18-508); assay: immunoprecipitation of PDI from lysates of resting and thrombin-treated human platelets, immunoblot with anti-ERO1α, densitometry
T2 construct: Immunoprecipitated with biotinylated polyclonal anti-PDI antibodies
Method: FIG. 1(A-D) is an exemplary embodiment of PDI interacting with ERO1α in platelets in accordance with the present disclosure. Human platelets were treated with or without thrombin for 5 minutes and immunoprecipitated with biotinylated polyclonal anti-PDI antibodies or control IgG. After trypsin digestion, mass spectrometric analysis was conducted. […] FIG. 1B: Examples of the identification of the tryptic peptides […] (SEQ ID NO: 1) and […] (SEQ ID NO: 2) from ERO1α in which the parent ion is observed at 521.77 and 753.37 m/z, respectively, and the parent ion mass error is 4.3 and 3.5 ppm, respectively. FIG. 1C: The peptide sequences of ERO1α that were detected after trypsin digestion. FIG. 1D: After immunoprecipitation with antibodies, the bound fraction was immunoblotted with the indicated antibodies, followed by densitometry (the band density of ERO1a/that of PDI). The data represent the mean±SD (n=3). P value determined by unpaired Student's t-test.

[2] = molecular target: T3, human platelet STIM1 (stromal interaction molecule 1) (human, UniProt Q13586 23-685); assay: co-immunoprecipitation of ERO1α from lysates of resting and thrombin-activated human platelets, mass spectrometry; volcano plot thrombin versus no thrombin
T3 construct: Co-immunoprecipitated with ERO1α

[3] = molecular target: T4, human platelet SERCA2 (sarco/endoplasmic reticulum Ca2+ ATPase 2) (human, UniProt P16615 1-1042, limits assumed); assay: as above
T4 construct: Co-immunoprecipitated with ERO1α

[4] = molecular target: T1, recombinant human ERO1α (endoplasmic …); assay: bio-layer interferometry, biotinylated ERO1α on the biosensor, STIM1 in solution
Text: PDI is reported to localize in the DTS of platelets. […] It is reported that deletion of platelet STIM1 reduces Ca²⁺ store content in the DTS and SOCE. Thus, ERO1α regulation of STIM1 function was investigated. Bio-layer interferometry was first performed using a biosensor coupled with biotinylated ERO1α and a different concentration of WT or mutant STIM1 in which Cys49 and Cys56 residues were mutated to Ser49 and Ser56 (mutant STIM1 [mSTIM1]-Cys49/56Ser).

T4 sequence (P16615 whole entry): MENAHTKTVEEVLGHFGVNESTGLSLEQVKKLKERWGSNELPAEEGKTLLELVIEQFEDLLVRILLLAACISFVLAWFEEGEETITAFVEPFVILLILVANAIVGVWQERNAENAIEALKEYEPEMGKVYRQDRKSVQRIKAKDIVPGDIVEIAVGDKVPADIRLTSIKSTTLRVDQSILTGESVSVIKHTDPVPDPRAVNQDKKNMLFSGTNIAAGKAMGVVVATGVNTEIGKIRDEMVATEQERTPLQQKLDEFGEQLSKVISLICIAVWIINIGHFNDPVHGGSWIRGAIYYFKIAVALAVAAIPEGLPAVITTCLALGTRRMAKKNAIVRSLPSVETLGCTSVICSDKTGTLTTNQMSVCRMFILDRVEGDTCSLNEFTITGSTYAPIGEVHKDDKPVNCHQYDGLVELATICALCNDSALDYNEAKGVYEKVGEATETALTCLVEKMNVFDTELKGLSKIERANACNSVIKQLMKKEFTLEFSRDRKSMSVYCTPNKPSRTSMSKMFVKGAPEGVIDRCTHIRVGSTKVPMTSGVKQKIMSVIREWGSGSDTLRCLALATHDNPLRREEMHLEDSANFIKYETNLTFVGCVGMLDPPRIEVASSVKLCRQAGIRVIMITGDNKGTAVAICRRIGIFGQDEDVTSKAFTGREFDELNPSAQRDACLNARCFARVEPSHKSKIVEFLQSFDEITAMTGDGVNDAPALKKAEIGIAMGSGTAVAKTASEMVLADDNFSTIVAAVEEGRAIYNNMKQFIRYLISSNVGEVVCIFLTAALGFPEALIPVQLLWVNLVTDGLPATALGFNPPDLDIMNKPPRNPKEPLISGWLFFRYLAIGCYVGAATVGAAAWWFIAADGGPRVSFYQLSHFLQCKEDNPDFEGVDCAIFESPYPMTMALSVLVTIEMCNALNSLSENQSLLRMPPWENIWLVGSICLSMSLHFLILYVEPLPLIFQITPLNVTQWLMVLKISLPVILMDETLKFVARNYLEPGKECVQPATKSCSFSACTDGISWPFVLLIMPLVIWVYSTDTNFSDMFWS
T2 sequence (P07237 18-508 limits assumed): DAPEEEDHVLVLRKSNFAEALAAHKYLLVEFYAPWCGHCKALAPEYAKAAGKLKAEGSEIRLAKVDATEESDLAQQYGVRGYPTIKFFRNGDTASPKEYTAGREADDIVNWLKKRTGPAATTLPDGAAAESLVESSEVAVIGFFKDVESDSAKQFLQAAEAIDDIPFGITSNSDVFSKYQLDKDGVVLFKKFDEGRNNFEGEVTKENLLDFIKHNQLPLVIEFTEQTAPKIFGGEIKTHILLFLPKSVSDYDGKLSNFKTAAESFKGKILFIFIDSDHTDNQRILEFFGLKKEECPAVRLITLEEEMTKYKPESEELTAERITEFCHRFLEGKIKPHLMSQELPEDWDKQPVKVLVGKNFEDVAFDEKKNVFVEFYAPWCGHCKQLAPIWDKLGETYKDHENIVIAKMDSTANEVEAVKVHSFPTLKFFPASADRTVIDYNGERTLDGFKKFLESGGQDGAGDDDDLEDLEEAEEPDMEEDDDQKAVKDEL

| Binder | binding result [1] | binding result [2] | binding result [3] | Kd [4] [nM] |
| --- | --- | --- | --- | --- |
| B1 | binds | binds | binds |  |
| B2 |  |  |  | 2600 |
